In patent publication US11542481B2, “Morphinan N-demethylase isolated from the methylobacterium thebainfresser and methods of use thereof” (priority 2017, dated 2023):

How the values were obtained:
[1] = MND enzyme temperature optimum assay; assay type: biochemical; conditions: 20 min assays at 20° C.-80° C., pH 8.0, 7.5 μM thebaine
Procedure: Enzyme assays with 100 μl purified MND enzyme (˜36 μg), 7.5 μM thebaine, and 30 mM potassium phosphate pH 8.0 in a total assay volume of 200 μl were performed in duplicate and allowed to incubate at the following temperatures for 20 minutes: 20° C., 25° C., 30° C., 40° C., 50° C., 60° C., 70° C. and 80° C. Assays with purified pET28a empty vector control were included at each temperature. Assays were quenched by the addition of 400 μl MeOH followed by rapid mixing for 30 s then subject to centrifugation (16,000×g, 30 min, RT). Samples were diluted further (total of 50 fold dilution) to achieve an analyte concentration of 0.15 μM prior to filtration (low protein binding 0.2 μm, 4 mm, PTFE; Millipore) and introduction into the QTRAP 6500 using Method 1.

[2] = MND enzyme stability assay; assay type: biochemical; conditions: pre-incubated at 30° C. in assay buffer pH 7.0 up to 72 hours, then 20 min with thebaine
Procedure: 100 μl purified MND enzyme (˜36 μg) was incubated in 30 mM potassium phosphate buffer pH 7.0 at 30° C. for 72, 48, 24, 6, 3, and 1 hours prior to addition of 1500 pmol thebaine in a total volume of 200 μl. The assay was allowed to proceed for 20 minutes after substrate addition and was processed and analyzed as in section 23.0.

[3] = MND solvent stability assays; assay type: biochemical; conditions: for reduction in activity: pH 7.0, 30° C., 20 min
Procedure: FIG. 27. […] Enzyme assays with 5% and 25% of DMSO, methanol, chloroform, tetrahydrofuran, toluene, heptane, and diethyl ether were performed in duplicate and contained 30 mM potassium phosphate buffer pH 7.0, 36 μg purified enzyme, and 1500 pmol of thebaine. Assays were allowed to proceed for 20 min at 30° C. and analyzed by LC-MS/MS using the QTRAP 6500.
Enzymes used in pharma manufacturing must withstand harsh conditions and tolerate solvents, especially if the substrate is insoluble in water (FIG. 27). MND activity was tested in the following solvents at 5% and 25% concentration: DMSO, methanol, chloroform, tetrahydrofuran, toluene, heptane, and diethyl ether.

[4] = Proteinase K treatment and cofactor addition, conversion of thebaine to northebaine; assay type: biochemical; conditions: 1 hour Proteinase K digestion before 20 min assay, pH 7.0
Procedure: The first of two assays performed included adding 1500 pmol FAD to the 200 MND enzyme assay including 100 μl purified MND (˜36 μg) and 1500 pmol thebaine in 30 mM potassium phosphate buffer pH 7.0 with and without a prior 1 hour digest (of MND enzyme) with Proteinase K. Controls included a no enzyme control, FAD addition to a no enzyme control, a pET28a empty vector control, a pET28a empty vector control with FAD, and a pET28a empty vector control digested with Proteinase K followed by FAD addition. Assays were allowed to incubate for 20 minutes and then processed as in section 23.0. A second set of assays was performed, in duplicate, to validate the results found in the previous assay in addition to testing more cofactors. This assay included the following conditions; MND enzyme, MND enzyme pre-digested with Proteinase K for 1 hour, MND enzyme digested with Proteinase K in the presence of 1% SDS and 10 mM EDTA, MND enzyme with 1% SDS and 10 mM EDTA (no Proteinase K pre-digestion), pET28a empty vector, pET28a empty vector pre-digested with Proteinase K for 1 hour, pET28a empty vector digested with Proteinase K in the presence of 1% SDS and 10 mM EDTA, MND enzyme with the addition of 1500 pmol FMN, pET28a empty vector with the addition of 1500 pmol FMN, MND enzyme with the addition of 1500 pmol PLP and pET28a empty vector with the addition of 1500 pmol PLP. Assays were allowed to proceed for 20 minutes prior to processing and quantitation as described in section 23.0.

[5] = assay type: cell-based, E. coli; conditions: BL21 Star (DE3) cells, toluene treated, 20 μM thebaine, overnight 30° C.
[6] = MND enzyme pH optimum assay; assay type: biochemical; conditions: 20 min
Procedure: Enzyme assays with 100 μl purified MND enzyme (˜36 μg), 7.5 μM thebaine, and 60 mM buffer (citrate buffer pH 4 and pH 5, potassium phosphate buffer pH 6.0, pH 7.0, and pH 8.0, and glycine-NaOH buffer pH 9, pH 10, and pH 10.5) in a total assay volume of 200 μl were allowed to incubate at 30° for 20 minutes. Assays with no enzyme and a purified pET28a empty vector control in pH 8.0 were included. The remaining protocol was the same as for the temperature optimum above. A supplemental pH assay was run in the same manner as above to verify the low pH results using a glycine-HCL buffer for pH 2, 3, and 4 and citrate buffer for pH 4, 5, and 6.

B1: MND enzyme: morphinan N-demethylase identified from the Methylobacterium Thebainfresser, amino acid sequence SEQ ID NO: 2, His-tagged, expressed in E. coli (protein)
chain: MTEKTPKLGSEAANKLGLEADISRRDMVGGVLIGAGAALLASVAPGAINRALAEGPSRLPPVRGSGTGWRGIEIADDWQGPGGIGDYSKSNGNTGKVIRDAHAGIRNHEFEKRLATASDVNEKYDVIIVGAGISGLHSAYDLLRQRPNIKILMLDNHAIFGGEAKQNKMEVDGQALYGGQGPTLYSFVGDDLPSWKGNPALASIMELKTYPKEFGLPTETTWSDKKTDVKVPVDLWFSMASPSQTDIAYRWEGSGLVKNPLLNSFRDAPVSQKSKDAIALMLAVDNGAKRPVEPVGDVSTWVDNMTYAEFLKKVYGADDEAVQLVDQIDVVGTAGLGGDVFNASLAALGLNQYGGIELWNGGLQGLSLPTGNGGVGRSILRKFMPGAIKGGTSLTDTLFGDVNWDVLDHANNNVRIRLNSTVVGVQNNETPTGTKDATVFFLHDNRLYKAKGKAVIMGTPQQVNRNVCLNLPNHLSEAMGDFHHAPILVVNVALRNWKSMEKAGVSGLRWFGEYPGIGQIVRSMVIDGKEIMPCDPSKPAVMTFYIPMNQATRGMPRGEQAMTARHMLFNLTFADIELLIRDQLTRAFGSYGFDAKRDIAAIVANRWGHALVCAGPGFYTGLNGKPPVSKVITAGWDRVAFGHSDLSGRQAWTVAVNYARTAVANVFPKI
modifications: His tag; Methylobacterium Thebainfresser
temperature of highest northebaine accumulation [1]: 60 °C | ability to demethylate thebaine after pre-incubation (stability) [2]: maintained its ability to demethylate thebaine | activity (in words) ([3]; 5% DMSO): little to no reduction in activity | activity (in words) ([3]; 5% methanol): little to no reduction in activity | activity (in words) ([3]; 5% toluene): little to no reduction in activity | reduction in activity ([3]; 25% DMSO): 21% | activity (in words) ([3]; 25% chloroform): completely abolished | reduction in activity ([3]; 25% methanol): 43% | activity (in words) ([3]; 25% tetrahydrofuran): completely abolished | reduction in activity ([3]; 25% toluene): 44% | reduction in activity ([3]; diethyl ether (25%)): 66% | activity (in words) ([3]; heptane, outlier, heptane sat on top of the reaction): no reduction in activity | amount of northebaine produced after Proteinase K treatment of the enzyme [4]: increased | morphinan N-demethylase activity (northebaine production, in words) [5]: showed morphinan N-demethylase activity | northebaine production at pH 4 compared with pH 5-10.5 ([6]; citrate buffer pH 4, 30° C., not observed in glycine-HCL buffer): nearly twice as much | difference in northebaine production within the pH range ([6]; pH range of 5-10.5, 30° C.): no significant difference
